Measurements as given in patent US20050059089A1 (priority 2003, published 2005).
Like-named read-outs stand apart in the source and are kept apart here.

Legend:
[1] = target: T1, GPCR135 (Homo sapiens, UniProt Q9NSD7); assay: Ca2+ mobilization assay, 293 cells co-expressing GPCR135 and Gqi5; format: cell-based
T1 sequence (Q9NSD7 1-469): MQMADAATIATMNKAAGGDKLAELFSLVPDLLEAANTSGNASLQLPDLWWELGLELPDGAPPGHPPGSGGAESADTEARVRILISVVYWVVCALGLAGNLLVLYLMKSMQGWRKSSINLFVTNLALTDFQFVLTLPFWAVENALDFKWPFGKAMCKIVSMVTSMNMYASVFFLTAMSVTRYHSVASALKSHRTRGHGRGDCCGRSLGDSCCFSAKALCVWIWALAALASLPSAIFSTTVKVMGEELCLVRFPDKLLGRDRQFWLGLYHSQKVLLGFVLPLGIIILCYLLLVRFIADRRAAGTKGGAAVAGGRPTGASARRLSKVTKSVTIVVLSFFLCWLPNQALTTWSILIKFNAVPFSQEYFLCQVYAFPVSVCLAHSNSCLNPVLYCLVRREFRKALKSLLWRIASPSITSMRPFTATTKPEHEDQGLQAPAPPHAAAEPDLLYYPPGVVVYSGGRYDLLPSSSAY
Protocol: (§1) Human embryonic kidney (HEK) 293 cells were transfected with GPCR135,.GPCR142 or co-transfected with Gqi5 (Conklin et al. (1993), Nature 363, 274-280) or Gα16 (Amatruda et al. (1991), Proc. Natl. Acad. Sci. U.S.A. 88, 5587-5591) expressing plasmids using LipofectAmine. Two days after transfection, cells were detached with PBS plus 10 mM EDTA. The detached cells were washed with DMEM-F12 medium (without phenol red, Invitrogen) and seeded in black poly-D lysine coated 96-well plates (BD Biosciences, San Jose, Calif.) at a cell density of 50,000 cell/well.

[2] = target: T1, GPCR135; assay: Ca2+ mobilization assay, HEK293 cells co-expressing GPCR135 and Gα16; format: cell-based; parameters: expressed in transfected cells; host or cells: HEK293 with Gα16 or Gqi5 (Ca2+)
[3] = target: T2, GPCR142 (Homo sapiens, UniProt Q8TDU9, L329S); assay: Ca2+ mobilization assay, 293 cells co-expressing GPCR142 and Gqi5; format: cell-based; parameters: The complete coding region of human GPCR142 was PCR-amplified from human genomic DNA; expressed in transfected cells; HEK293 co-transfected with Gqi5 (Ca2+)
T2 sequence (Q8TDU9 whole entry L329S): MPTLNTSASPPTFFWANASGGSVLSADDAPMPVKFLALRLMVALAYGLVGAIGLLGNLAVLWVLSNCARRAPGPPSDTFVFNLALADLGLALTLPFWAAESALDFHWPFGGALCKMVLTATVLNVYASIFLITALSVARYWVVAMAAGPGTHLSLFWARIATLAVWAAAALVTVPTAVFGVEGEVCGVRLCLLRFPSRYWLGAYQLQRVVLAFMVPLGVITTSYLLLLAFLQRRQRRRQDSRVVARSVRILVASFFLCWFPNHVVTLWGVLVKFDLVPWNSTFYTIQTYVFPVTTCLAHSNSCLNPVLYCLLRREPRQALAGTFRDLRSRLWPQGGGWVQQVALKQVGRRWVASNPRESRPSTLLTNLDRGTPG
Protocol: as §1

[4] = target: T2, GPCR142; assay: Inhibition of forskolin-stimulated cAMP (CRE-β-galactosidase) in SK-N-MC cells; format: cell-based; parameters: The complete coding region of human GPCR142 was PCR-amplified from human genomic DNA; expressed in transfected cells; HEK293 co-transfected with Gqi5 (Ca2+); conditions: SK-N-MC cells stably expressing GPCR142
Protocol: SK-N-MC cells stably expressing GPCR142 were established by transfection of GPCR142 expressing plasmids into SK-N-MC cells harboring a β-galactosidase gene under control of multiple cAMP responsive elements. The stable transfectants were selected by culturing the transfected cells under G418 selection (400 mg/L). The receptor expressing cells were seeded in 96-well plates at a cell density of 30,000 cells/well. After 24 h, cells were stimulated with forskolin or different peptides. Cells were cultured for an additional 6 h and the intracellular β-gal activity, which represents the intracellular cAMP accumulation, was measured as described by Liu et al. (2000), Mol. Pharmacol., 59, 420-426.

[5] = target: T1, GPCR135; assay: Radioligand competition binding with 125I-relaxin3, COS-7 cell membranes; parameters: expressed in transfected cells; host or cells: COS-7 (membranes); conditions: COS-7 membranes, 100 pM radioligand
Protocol: Cell membranes from COS-7 cells transiently expressing GPCR142 were incubated with ^125I-relaxin3 either in the presence or absence of various concentrations of different competitors in 96-well plates at a final volume of 200 μL in binding buffer: 50 mM Tris-HCl (pH 7.4), 2 mM EDTA plus 0.5% BSA. The binding mixtures were incubated at room temperature for 1 h and then were filtered through 96-well GFC plates (Packard) and washed with ice-cold washing buffer: 50 mM Tris-HCl, pH 7.4. Fifty microliters of Microscint-40 were added to each well and the plates were counted in a Topcounter NTX (Packard). The radioligand binding results were analyzed using GraphPad PRISM software.
This binding assay was also performed using GPCR135.
To characterize INSL5 as the possible ligand for GPCR135 and GPCR142, cell membranes from COS-7 cells transiently expressing human GPCR135 or GPCR142 were used in the radioligand binding assays using [^125I)-relaxin3 as the radioligand as described by Liu et al. (2003a, 2003b). […] The binding assays were performed at room temperature for an incubation time of one hour. The binding mixtures were then filtered through GFC filters pre-saturated with 0.3 polyethylenimine (Sigma) and washed with cold binding buffer. The bound radioligand was counted in a top counter (TopCount/NTX, Packard) with Microscint-40. The results were analyzed by Prism 3.0 software.

[6] = target: T2, GPCR142; assay: Radioligand binding assay with 125I-relaxin3 (saturation and competition), COS-7 cell membranes; parameters: The complete coding region of human GPCR142 was PCR-amplified from human genomic DNA; expressed in transfected cells; conditions: competition binding, COS-7 membranes; listed as unlabeled relaxin3
Protocol: The binding mixtures were incubated at room temperature for 1 h and then were filtered through 96-well GFC plates (Packard) and washed with ice-cold washing buffer: 50 mM Tris-HCl, pH 7.4. Fifty microliters of Microscint-40 were added to each well and the plates were counted in a Topcounter NTX (Packard). The radioligand binding results were analyzed using GraphPad PRISM software.
The binding assays were performed at room temperature for an incubation time of one hour. The binding mixtures were then filtered through GFC filters pre-saturated with 0.3 polyethylenimine (Sigma) and washed with cold binding buffer. The bound radioligand was counted in a top counter (TopCount/NTX, Packard) with Microscint-40. The results were analyzed by Prism 3.0 software.

**Q.** With “relaxin3: Human relaxin3 (SEQ ID NO: 6), produced recombinantly; mature peptide of A- and B-chain linked by disulfide bridges” as the substance, how does the “stimulation of Ca2+ mobilization” value [1] read?
**A.** stimulates Ca^2+ mobilization

**Q.** What about the “stimulation of Ca2+ mobilization” value [2] of the same substance?
**A.** stimulated Ca2+ mobilization

**Q.** What about the “stimulation of Ca2+ mobilization” value ([2]; listed as Relaxin3) of the same substance?
**A.** stimulated Ca^2+ mobilization

**Q.** And the “stimulation of Ca2+ signaling” value [3]?
**A.** No relaxin3-stimulated Ca^2+ signaling was observed

**Q.** What about the “stimulation of Ca2+ signaling” value ([3]; listed as Relaxin3) of the same substance?
**A.** does not stimulate any detectable Ca^2+ signal

**Q.** And the “inhibition of forskolin induced β-galactosidase expression” value [4]?
**A.** dose-dependently inhibits

**Q.** What about the “displacement of 125I-relaxin3 binding to GPCR135” value [5] of the same substance?
**A.** specifically displaced

**Q.** What about the “displacement of 125I-relaxin3 binding to GPCR142” value [6] of the same substance?
**A.** specifically displaced
